Measurements: patent publication US20200317769A1

Biological target: soluble cynomolgus monkey TNF-alpha (cynomolgus monkey) (UniProt P79337)
Test: cell-based or functional assay

Chain of soluble cynomolgus monkey TNF-alpha (cynomolgus monkey) (P79337 77-233 limits assumed): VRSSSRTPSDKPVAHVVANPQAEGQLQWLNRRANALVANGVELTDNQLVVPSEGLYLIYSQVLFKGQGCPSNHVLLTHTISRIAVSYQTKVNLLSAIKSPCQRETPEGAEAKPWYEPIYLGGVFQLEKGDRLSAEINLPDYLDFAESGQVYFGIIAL

Q: With adalimumab (antibody) as the substance, how does the Inhibition of cynomolgus TNF-induced L929 cell cytotoxicity EC50 read?
A: 0.04 nM
